One assay addresses T1, FcγRIIb (human, UniProt P31994 43-217).
T1 construct: extracellular domain; also called 2b
T1 sequence (looked up): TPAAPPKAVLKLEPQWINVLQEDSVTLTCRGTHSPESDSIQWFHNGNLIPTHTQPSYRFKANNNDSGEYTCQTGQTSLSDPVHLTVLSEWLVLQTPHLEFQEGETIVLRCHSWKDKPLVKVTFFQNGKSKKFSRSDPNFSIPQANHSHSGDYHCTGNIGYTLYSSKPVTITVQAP
Briefly: SPR (Biacore), relative binding vs GpH7-A5/GpH7-B3/GpL16-k0. As to the method:
(§1) The heterodimerized antibodies He Abs in which one of the H chains was introduced with an alteration were assayed for their binding activities to each activating FcγR and inhibitory FcγR according to the method described in Example 4. […] The activating FcγRs in FIGS. 26, 27, 28, and 29 are FcγRIa, FcγRIIa (R), FcγRIIa (H), and FcγRIIIa, respectively.
(§2) Analysis of interaction between objective antibody and the FcγR was carried out using Biacore T100 (GE Healthcare). HBS-EP+ (GE Healthcare) was used as the running buffer, and the measurement temperature was set to 25° C. Chips produced by immobilizing the antigen peptide by the amine coupling method to a Series S Sencor Chip CM5 (GE Healthcare), or alternatively, chips produced by allowing preliminarily biotinylated antigen peptides to interact with and immobilize onto a Series S Sensor Chip SA (certified) (GE Healthcare) were used. Antibodies of interest were captured onto an antigen peptide-immobilized chip, and allowed to interact to each FcγR diluted with running buffer. To regenerate and repeatedly use the chip, the antibodies captured on the chip were washed off by reacting 10 mM glycine-HCl, pH 1.5.

The target in the next assay is T2, FcγRIIa H (human, UniProt P12318 34-217).
T2 construct: extracellular domain; also called FcγRIIa type H; 2aH
T2 sequence (looked up): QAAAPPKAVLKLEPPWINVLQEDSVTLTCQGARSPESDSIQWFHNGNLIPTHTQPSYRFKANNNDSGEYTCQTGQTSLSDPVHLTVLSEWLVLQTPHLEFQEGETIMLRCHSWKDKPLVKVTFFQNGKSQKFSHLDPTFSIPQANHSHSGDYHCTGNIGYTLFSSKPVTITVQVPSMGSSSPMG
The assay is described as above. As to the method: as §1, §2

B1: GpH7-A5/GpH7-B3 variant N325_13S/GpL16-k0 (antibody, human IgG1, kappa)
heavy 1: not shown
heavy 2: not shown
light: DIVMTQSPLSLPVTPGEPASISCQASESLVHSNRNTYLHWYLQKPGQSPQLLIYKVSNRFSGVPDRFSGSGSGTDFTLKISRVEAEDVGVYYCSQNTHVPPTFGQGTKVEIERTVAAPSVFIFPPSDEQLKSGTASVVCLLNNFYPREAKVQWKVDNALQSGNSQESVTEQDSKDSTYSLSSTLTLSKADYEKHKVYACEVTHQGLSSPVTKSFNRGEC
notes: heterodimerized IgG1, mutation in one H chain only; also called He Ab
Regarding B1, in the assay with FcγRIIb, the He/Con_2b was 177 % of control He Ab (=100). The He/Con_2aH in the assay with FcγRIIa H is 79.7 % of control He Ab (=100).

B2: GpH7-A5/GpH7-B3 variant P331_10E/GpL16-k0 (antibody, human IgG1, kappa)
heavy 1: not shown
heavy 2: not shown
light: DIVMTQSPLSLPVTPGEPASISCQASESLVHSNRNTYLHWYLQKPGQSPQLLIYKVSNRFSGVPDRFSGSGSGTDFTLKISRVEAEDVGVYYCSQNTHVPPTFGQGTKVEIERTVAAPSVFIFPPSDEQLKSGTASVVCLLNNFYPREAKVQWKVDNALQSGNSQESVTEQDSKDSTYSLSSTLTLSKADYEKHKVYACEVTHQGLSSPVTKSFNRGEC
notes: as for B1
For the molecule B2, the He/Con_2b with FcγRIIb was 116 % of control He Ab (=100). In the assay with FcγRIIa H, the He/Con_2aH is 87.1 % of control He Ab (=100).

B3: GpH7-A5/GpH7-B3 variant P331_15Y/GpL16-k0 (antibody, human IgG1, kappa)
heavy 1: not shown
heavy 2: not shown
light: DIVMTQSPLSLPVTPGEPASISCQASESLVHSNRNTYLHWYLQKPGQSPQLLIYKVSNRFSGVPDRFSGSGSGTDFTLKISRVEAEDVGVYYCSQNTHVPPTFGQGTKVEIERTVAAPSVFIFPPSDEQLKSGTASVVCLLNNFYPREAKVQWKVDNALQSGNSQESVTEQDSKDSTYSLSSTLTLSKADYEKHKVYACEVTHQGLSSPVTKSFNRGEC
notes: as for B1
B3: the He/Con_2b in the assay with FcγRIIb is 114 % of control He Ab (=100). Also, the He/Con_2aH in the assay with FcγRIIa H was 86 % of control He Ab (=100).

B4: GpH7-A5/GpH7-B3 variant P331_07I/GpL16-k0 (antibody, human IgG1, kappa)
heavy 1: not shown
heavy 2: not shown
light: DIVMTQSPLSLPVTPGEPASISCQASESLVHSNRNTYLHWYLQKPGQSPQLLIYKVSNRFSGVPDRFSGSGSGTDFTLKISRVEAEDVGVYYCSQNTHVPPTFGQGTKVEIERTVAAPSVFIFPPSDEQLKSGTASVVCLLNNFYPREAKVQWKVDNALQSGNSQESVTEQDSKDSTYSLSSTLTLSKADYEKHKVYACEVTHQGLSSPVTKSFNRGEC
notes: as for B1
In the case of B4, the He/Con_2b with FcγRIIb was 114 % of control He Ab (=100). The He/Con_2aH in the assay with FcγRIIa H is 77.4 % of control He Ab (=100).

B5: GpH7-A5/GpH7-B3 variant P331_06M/GpL16-k0 (antibody, human IgG1, kappa)
heavy 1: not shown
heavy 2: not shown
light: DIVMTQSPLSLPVTPGEPASISCQASESLVHSNRNTYLHWYLQKPGQSPQLLIYKVSNRFSGVPDRFSGSGSGTDFTLKISRVEAEDVGVYYCSQNTHVPPTFGQGTKVEIERTVAAPSVFIFPPSDEQLKSGTASVVCLLNNFYPREAKVQWKVDNALQSGNSQESVTEQDSKDSTYSLSSTLTLSKADYEKHKVYACEVTHQGLSSPVTKSFNRGEC
notes: as for B1
For B5, the He/Con_2b in the assay with FcγRIIb is 102 % of control He Ab (=100). Moreover, the He/Con_2aH with FcγRIIa H was 85.1 % of control He Ab (=100).

B6: GpH7-A5/GpH7-B3 variant P331_04F/GpL16-k0 (antibody, human IgG1, kappa)
heavy 1: not shown
heavy 2: not shown
light: DIVMTQSPLSLPVTPGEPASISCQASESLVHSNRNTYLHWYLQKPGQSPQLLIYKVSNRFSGVPDRFSGSGSGTDFTLKISRVEAEDVGVYYCSQNTHVPPTFGQGTKVEIERTVAAPSVFIFPPSDEQLKSGTASVVCLLNNFYPREAKVQWKVDNALQSGNSQESVTEQDSKDSTYSLSSTLTLSKADYEKHKVYACEVTHQGLSSPVTKSFNRGEC
notes: as for B1
As to B6, the He/Con_2b with FcγRIIb is 110 % of control He Ab (=100). For the same molecule, in the assay with FcγRIIa H, the He/Con_2aH was 84.7 % of control He Ab (=100).

B7: GpH7-A5/GpH7-B3 variant P331_03V/GpL16-k0 (antibody, human IgG1, kappa)
heavy 1: not shown
heavy 2: not shown
light: DIVMTQSPLSLPVTPGEPASISCQASESLVHSNRNTYLHWYLQKPGQSPQLLIYKVSNRFSGVPDRFSGSGSGTDFTLKISRVEAEDVGVYYCSQNTHVPPTFGQGTKVEIERTVAAPSVFIFPPSDEQLKSGTASVVCLLNNFYPREAKVQWKVDNALQSGNSQESVTEQDSKDSTYSLSSTLTLSKADYEKHKVYACEVTHQGLSSPVTKSFNRGEC
notes: as for B1
As to B7, the He/Con_2b with FcγRIIb is 119 % of control He Ab (=100). The He/Con_2aH with FcγRIIa H was 82.5 % of control He Ab (=100).

B8: GpH7-A5/GpH7-B3 variant N325_20W/GpL16-k0 (antibody, human IgG1, kappa)
heavy 1: not shown
heavy 2: not shown
light: DIVMTQSPLSLPVTPGEPASISCQASESLVHSNRNTYLHWYLQKPGQSPQLLIYKVSNRFSGVPDRFSGSGSGTDFTLKISRVEAEDVGVYYCSQNTHVPPTFGQGTKVEIERTVAAPSVFIFPPSDEQLKSGTASVVCLLNNFYPREAKVQWKVDNALQSGNSQESVTEQDSKDSTYSLSSTLTLSKADYEKHKVYACEVTHQGLSSPVTKSFNRGEC
notes: as for B1
B8: the He/Con_2b with FcγRIIb is 169 % of control He Ab (=100). The He/Con_2aH with FcγRIIa H is 47.2 % of control He Ab (=100).
